Earlier results in publication PMC6685676.
Read-outs that look alike come from different tables or passages of the source.

Key:
[1] = biological target: angiotensin III (Homo sapiens) (UniProt P01019)
[2] = biological target: angiotensin III (Homo sapiens) (UniProt P01019); remark: listed apart in the source

Chain of UniProt P01019 (P01019 whole entry, looked up): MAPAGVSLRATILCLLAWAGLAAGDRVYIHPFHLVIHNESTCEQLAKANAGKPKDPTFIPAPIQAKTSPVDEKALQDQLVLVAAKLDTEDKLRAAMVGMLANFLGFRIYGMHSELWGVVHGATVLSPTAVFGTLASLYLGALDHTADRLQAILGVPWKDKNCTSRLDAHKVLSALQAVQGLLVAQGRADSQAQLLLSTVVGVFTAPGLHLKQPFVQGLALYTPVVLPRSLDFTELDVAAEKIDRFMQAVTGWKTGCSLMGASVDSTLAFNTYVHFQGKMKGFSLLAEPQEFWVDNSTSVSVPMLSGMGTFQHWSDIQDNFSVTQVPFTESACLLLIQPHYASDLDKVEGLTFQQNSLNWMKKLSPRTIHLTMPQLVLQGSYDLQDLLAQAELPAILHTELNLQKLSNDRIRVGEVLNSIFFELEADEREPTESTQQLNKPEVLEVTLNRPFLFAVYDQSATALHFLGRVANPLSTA

In the case of DPP3 (from UniProt O55096), the Ki [1] is listed as 24 nM.

In the case of DPP3 (from UniProt Q9NY33), the Ki [2] is listed as 88 nM.
